Article PMC8926151 (Science (New York, N.Y.), 2021)

B1: RGS7-Gβ5 signaling complex (complex)
chain 1: MAQGNNYGQTSNGVADESPNMLVYRKMEDVIARMQDEKNGIPIRTVKSFLSKIPSVFSGSDIVQWLIKNLTIEDPVEALHLGTLMAAHGYFFPISDHVLTLKDDGTFYRFQTPYFWPSNCWEPENTDYAVYLCKRTMQNKARLELADYEAESLARLQRAFARKWEFIFMQAEAQAKVDKKRDKIERKILDSQERAFWDVHRPVPGCVNTTEVDIKKSSRMRNPHKTRKSVYGLQNDIRSHSPTHTPTPETKPPTEDELQQQIKYWQIQLDRHRLKMSKVADSLLSYTEQYLEYDPFLLPPDPSNPWLSDDTTFWELEASKEPSQQRVKRWGFGMDEALKDPVGREQFLKFLESEFSSENLRFWLAVEDLKKRPIKEVPSRVQEIWQEFLAPGAPSAINLDSKSYDKTTQNVKEPGRYTFEDAQEHIYKLMKSDSYPRFIRSSAYQELLQAKKK
chain 2: GLHENETLASLKSEAESLKGKLEEERAKLHDVELHQVAERVEALGQFVMKTRRTLKGHGNKVLCMDWCKDKRRIVSSSQDGKVIVWDSFTTNKEHAVTMPCTWVMACAYAPSGCAIACGGLDNKCSVYPLTFDKNENMAAKKKSVAMHTNYLSACSFTNSDMQILTASGDGTCALWDVESGQLLQSFHGHGADVLCLDLAPSETGNTFVSGGCDKKAMVWDMRSGQCVQAFETHESDINSVRYYPSGDAFASGSDDATCRLYDLRADREVAIYSKESIIFGASSVDFSLSGRLLFAGYNDYTINVWDVLKGSRVSILFGHENRVSTLRVSPDGTAFCSGSWDHTLRVWA
B2: human GPR158 receptor (receptor, UniProt Q5T848 24-1215, looked up)
chain: ASRDPQGRPDSPRERTPKGKPHAQQPGRASASDSSAPWSRSTDGTILAQKLAEEVPMDVASYLYTGDSHQLKRANCSGRYELAGLPGKWPALASAHPSLHRALDTLTHATNFLNVMLQSNKSREQNLQDDLDWYQALVWSLLEGEPSISRAAITFSTDSLSAPAPQVFLQATREESRILLQDLSSSAPHLANATLETEWFHGLRRKWRPHLHRRGPNQGPRGLGHSWRRKDGLGGDKSHFKWSPPYLECENGSYKPGWLVTLSSAIYGLQPNLVPEFRGVMKVDINLQKVDIDQCSSDGWFSGTHKCHLNNSECMPIKGLGFVLGAYECICKAGFYHPGVLPVNNFRRRGPDQHISGSTKDVSEEAYVCLPCREGCPFCADDSPCFVQEDKYLRLAIISFQALCMLLDFVSMLVVYHFRKAKSIRASGLILLETILFGSLLLYFPVVILYFEPSTFRCILLRWARLLGFATVYGTVTLKLHRVLKVFLSRTAQRIPYMTGGRVMRMLAVILLVVFWFLIGWTSSVCQNLEKQISLIGQGKTSDHLIFNMCLIDRWDYMTAVAEFLFLLWGVYLCYAVRTVPSAFHEPRYMAVAVHNELIISAIFHTIRFVLASRLQSDWMLMLYFAHTHLTVTVTIGLLLIPKFSHSSNNPRDDIATEAYEDELDMGRSGSYLNSSINSAWSEHSLDPEDIRDELKKLYAQLEIYKRKKMITNNPHLQKKRCSKKGLGRSIMRRITEIPETVSRQCSKEDKEGADHGTAKGTALIRKNPPESSGNTGKSKEETLKNRVFSLKKSHSTYDHVRDQTEESSSLPTESQEEETTENSTLESLSGKKLTQKLKEDSEAESTESVPLVCKSASAHNLSSEKKTGHPRTSMLQKSLSVIASAKEKTLGLAGKTQTAGVEERTKSQKPLPKDKETNRNHSNSDNTETKDPAPQNSNPAEEPRKPQKSGIMKQQRVNPTTANSDLNPGTTQMKDNFDIGEVCPWEVYDLTPGPVPSESKVQKHVSIVASEMEKNPTFSLKEKSHHKPKAAEVCQQSNQKRIDKAEVCLWESQGQSILEDEKLLISKTPVLPERAKEENGGQPRAANVCAGQSEELPPKAVASKTENENLNQIGHQEKKTSSSEENVRGSYNSSNNFQQPLTSRAEVCPWEFETPAQPNAGRSVALPASSALSANKIAGPRKEEIWDSFKV

Columns and labels:
human GPR158 receptor = target: B2; test: cryo-EM structure
cryo-EM structure = target: the molecule itself; test: cryo-EM structure

Row | stoichiometry N (human GPR158 receptor) | Binder | stoichiometry N (cryo-EM structure)
1 | 1 RGS7-Gβ5 complex per GPR158 homodimer | B1 | 
2 |  | B2 | 2
